In paper PMC8062024:
Like-named read-outs stand apart in the source and are kept apart here.

| Substance | enzymatic_activity (N-glycosylation at N79) | expression_or_secretion (N-glycosylation at N79) | enzymatic_activity (N-glycosylation at N170) | expression_or_secretion (N-glycosylation at N170) | enzymatic_activity (N-glycosylation at N424) | expression_or_secretion (N-glycosylation at N424) |
| --- | --- | --- | --- | --- | --- | --- |
| PmCOX (Penaeus monodon cyclooxygenase): N79Q | no change, secreted PGE2 8.65 nM vs 7.40 nM wild type (40 uM ARA) | no change |  |  |  |  |
| PmCOX (Penaeus monodon cyclooxygenase): N79Q/N170Q/N424Q triple mutant | abolishes, secreted PGE2 2.23 nM vs 7.40 nM wild type (empty vector 2.68 nM) | decreases | abolishes, secreted PGE2 2.23 nM vs 7.40 nM wild type (empty vector 2.68 nM) | decreases | abolishes, secreted PGE2 2.23 nM vs 7.40 nM wild type (empty vector 2.68 nM) | decreases |
| PmCOX (Penaeus monodon cyclooxygenase): N170Q |  |  | abolishes, secreted PGE2 2.45 nM vs 7.40 nM wild type (empty vector 2.68 nM) |  |  |  |
| PmCOX (Penaeus monodon cyclooxygenase): N424Q |  |  |  |  | abolishes, secreted PGE2 2.79 nM vs 7.40 nM wild type (empty vector 2.68 nM) |  |
